Source: patent US20260166085A1 (BEAM THERAPEUTICS, published 2026)

Legend:
[1] = target: T1, Wild type CD117 expressed on cells (M07e cells, unedited human CD34+ HSPCs) (human, UniProt P10721 26-976); experiment: cell-based or functional assay
[2] = target: T1, Wild type CD117 expressed on cells …; experiment: cell-based or functional assay; remark: listed apart in the source
[3] = target: T2, Wild type CD117 purified protein (human, UniProt P10721 26-520, limits assumed); experiment: monovalent KD, CD117 titrated (FIGS. 73A-73E)
T2 construct: Protein used in BLI/kinetics and cryo-EM; also called wt CD117; Wt CD117
T2 sequence (P10721 26-520 limits assumed): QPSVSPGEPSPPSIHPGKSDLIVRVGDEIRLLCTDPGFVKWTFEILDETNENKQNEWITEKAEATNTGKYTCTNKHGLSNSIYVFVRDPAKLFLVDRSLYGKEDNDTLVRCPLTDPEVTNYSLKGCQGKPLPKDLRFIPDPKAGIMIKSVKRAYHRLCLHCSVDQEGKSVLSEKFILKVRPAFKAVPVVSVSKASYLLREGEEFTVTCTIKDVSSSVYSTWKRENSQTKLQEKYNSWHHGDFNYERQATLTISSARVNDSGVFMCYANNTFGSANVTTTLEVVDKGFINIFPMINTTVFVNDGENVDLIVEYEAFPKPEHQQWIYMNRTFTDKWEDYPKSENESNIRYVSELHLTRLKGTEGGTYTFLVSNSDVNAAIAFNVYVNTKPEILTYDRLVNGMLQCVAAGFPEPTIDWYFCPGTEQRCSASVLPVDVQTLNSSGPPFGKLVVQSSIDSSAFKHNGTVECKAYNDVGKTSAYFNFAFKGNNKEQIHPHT

[4] = target: T1, Wild type CD117 expressed on cells …; experiment: summary Table 75 (repeats Table 73)
[5] = target: T1, Wild type CD117 expressed on cells …; experiment: flow cytometry on M07e cells, AF647 secondary (FIG. 76A)
[6] = target: T2, Wild type CD117 purified protein; experiment: summary Table 75 (repeats Table 71)
[7] = target: T2, Wild type CD117 purified protein; experiment: KD, method not stated (Table 8B)
Cyno CD117 = target: T3, Cyno CD117 (cynomolgus, UniProt F6V858 26-520 (rhesus entry)); experiment: KD, method not stated (Table 8B)
T3 construct: also called cynomolgus CD117
T3 sequence (chain, as listed by the source): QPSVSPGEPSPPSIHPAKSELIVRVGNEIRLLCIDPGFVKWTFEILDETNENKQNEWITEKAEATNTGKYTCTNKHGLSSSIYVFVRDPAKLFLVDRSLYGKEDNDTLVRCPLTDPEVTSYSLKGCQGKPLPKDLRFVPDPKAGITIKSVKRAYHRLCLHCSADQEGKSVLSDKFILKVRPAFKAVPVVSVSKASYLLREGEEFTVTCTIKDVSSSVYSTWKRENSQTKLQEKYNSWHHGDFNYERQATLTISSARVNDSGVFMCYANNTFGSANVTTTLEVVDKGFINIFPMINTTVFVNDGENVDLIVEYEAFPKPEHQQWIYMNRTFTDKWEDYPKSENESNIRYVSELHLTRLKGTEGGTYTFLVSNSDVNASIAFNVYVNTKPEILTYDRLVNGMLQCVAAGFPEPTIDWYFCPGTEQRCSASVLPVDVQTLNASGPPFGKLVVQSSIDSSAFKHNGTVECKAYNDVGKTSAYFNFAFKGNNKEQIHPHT

[8] = target: T4, CC128 variant of CD117 (Y259C + N260D) expressed on cells (M07e, CD34+ HSPCs) (human, UniProt P10721 26-976); experiment: binding to edited M07e cells (Table 8B)
T4 construct: Edited cell pools also hold minor alleles (Y259C alone, N260D alone); also called CC128-edited CD117; CC128-M07e
T4 sequence (P10721 26-976 Y259C/N260D limits assumed): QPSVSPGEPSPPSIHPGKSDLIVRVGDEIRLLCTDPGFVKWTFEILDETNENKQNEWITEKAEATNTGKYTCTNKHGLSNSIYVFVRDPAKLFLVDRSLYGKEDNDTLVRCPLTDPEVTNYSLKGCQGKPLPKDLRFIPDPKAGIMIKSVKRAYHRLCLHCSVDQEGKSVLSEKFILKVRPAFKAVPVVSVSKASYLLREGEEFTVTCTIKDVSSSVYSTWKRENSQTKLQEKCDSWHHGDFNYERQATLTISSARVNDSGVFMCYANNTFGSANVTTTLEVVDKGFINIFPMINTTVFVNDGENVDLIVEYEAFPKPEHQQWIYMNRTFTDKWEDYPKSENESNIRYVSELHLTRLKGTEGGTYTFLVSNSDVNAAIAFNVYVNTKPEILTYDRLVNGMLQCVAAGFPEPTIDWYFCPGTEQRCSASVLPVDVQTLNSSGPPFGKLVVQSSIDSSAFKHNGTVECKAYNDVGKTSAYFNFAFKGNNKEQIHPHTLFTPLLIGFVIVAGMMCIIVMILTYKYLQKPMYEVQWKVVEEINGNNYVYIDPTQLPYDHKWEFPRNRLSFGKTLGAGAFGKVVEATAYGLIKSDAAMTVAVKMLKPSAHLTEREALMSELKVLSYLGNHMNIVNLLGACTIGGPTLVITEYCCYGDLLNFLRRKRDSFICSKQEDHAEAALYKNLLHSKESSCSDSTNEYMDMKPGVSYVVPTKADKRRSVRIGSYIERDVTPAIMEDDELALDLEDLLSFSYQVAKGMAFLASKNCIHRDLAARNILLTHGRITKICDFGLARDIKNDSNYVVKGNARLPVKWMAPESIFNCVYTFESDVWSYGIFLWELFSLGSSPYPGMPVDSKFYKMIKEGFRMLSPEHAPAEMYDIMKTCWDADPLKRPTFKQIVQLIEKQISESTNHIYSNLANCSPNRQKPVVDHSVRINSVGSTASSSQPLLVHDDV

[9] = target: T2, Wild type CD117 purified protein; experiment: binding kinetics, FIGS. 45A-45K
[10] = target: CC200 variant of CD117 (S261G) purified protein (human, UniProt P10721 26-520, limits assumed); experiment: binding kinetics, FIGS. 45A-45K
CC200 variant of CD117 (S261G) purified protein, sequence (P10721 26-520 S261G limits assumed): as the sequence (P10721 26-520 limits assumed) above, with S236G counted along it

[11] = target: T5, CC128 variant of CD117 (Y259C + N260D) purified protein (human, UniProt P10721 26-520, limits assumed); experiment: binding kinetics, FIGS. 45A-45K
T5 construct: also called CC128-edited CD117 as purified protein
T5 sequence (P10721 26-520 Y259C/N260D limits assumed): as the sequence (P10721 26-520 limits assumed) above, with Y234C, N235D counted along it

T1 sequence (P10721 26-976 limits assumed): as the sequence (P10721 26-976 Y259C/N260D limits assumed) above, with C234Y, D235N counted along it

Kd [3]	koff [3]	kon [3]	EC50 [4]	EC50 [5]	Kd [6]	Kd [9]	koff [9]	kon [9]	binding result [10]	binding result [11]	Binder	other results
–	–	–	–	–	–	–	–	–	–	–	ABTx167 (antibody, human IgG1, kappa, L234A L235A) heavy: QVQLVQSGAAVKKPGESLKISCKGSGYRFTSYWIGWVRQMPGKGLEWMGIIYPGDSDTRYSPSFQGQVTISAGKSISTAYLQWSSLKASDTAMYYCARHGRGYNGYEGAFDIWGQGTMVTVSSASTKGPSVFPLAPSSKSTSGGTAALGCLVKDYFPEPVTVSWNSGALTSGVHTFPAVLQSSGLYSLSSVVTVPSSSLGTQTYICNVNHKPSNTKVDKKVEPKSCDKTHTCPPCPAPEAAGGPSVFLFPPKPKDTLYITREPEVTCVVVAVSHEDPEVKFNWYVDGVEVHNAKTKPREEQYNSTYRVVSVLTVLHQDWLNGKEYKCKVSNKALPAPIEKTISKAKGQPREPQVYTLPPSRDELTKNQVSLTCLVKGFYPSDIAVEWESNGQPENNYKTTPPVLDSDGSFFLYSKLTVDKSRWQQGNVFSCSVMHEALHNHYTQKSLSLSPG light: not shown	IC50 [M], viability of unedited HSCs with 100 ng/mL SCF, 5-7 days [1]: 2.56e-07 M
8.18 nM	0.000691 s⁻¹	84400 M⁻¹ s⁻¹	5.21 nM	5.21 nM	8.18 nM	–	–	–	–	–	ABTx196 (antibody, human IgG1, V domains shown) VH: EVQLVESGGGLVQPGRSLRLSCAASGFTFDDYAMHWVRQAPGKGLEWVSGISWNSGTIGYADSVKGRFTNSRDNAKNSLYLEMNSLRAEDTALYYCAKDSPPGYCSSASCYGAFDIWGQGTMVTVSS VL: DVVMTQSPGTLSLSPGERATLSCRASQSVSSSYLAWYQQKPGQAPRLLIYGASSRATGIPDRFSGSGSGTDFTLTISRLEPEDFAVYYCQQSETCLTFGGGTKLEIK	IC50 (M), depletion of human CD34+ HSPCs [2]: 1.3e-05 M
–	–	–	–	–	–	–	–	–	–	–	ABTx062 (antibody, human IgG1, kappa, V domains shown) VH: EVQLVESGGGLVQPGRSLRLSCSASGFTFDDYAMHWVRQAPGKGLEWVSGISWNSGTIGYADSVKGRFTISRDNAKNSLYLQMNSLRAEDTALYYCAKDSPPGYCSSASCYGAFDIWGQGTTVTVSS VL: not shown	Kd [7]: 18 nM; Kd (Cyno CD117): 31.8 nM; binding result [8]: no binding
–	–	–	–	–	–	–	–	–	–	–	ABTx061 (antibody, human IgG1, kappa, V domains shown) VH: EVQLVESGGGLVQPGRSLRLSCAASGFTFDDYAMHWVRQAPGKGLEWVSGISWNSGSIGYADSVKGRFTISRDNAKNSLYLQMNSLRAEDTALYYCAKDTPLGYCSTTSCYGAFDIWGQGTMVTVSS VL: not shown	Kd [7]: 18.6 nM; Kd (Cyno CD117): 29.5 nM; binding result [8]: no binding
2.42 nM	0.00014 s⁻¹	57800 M⁻¹ s⁻¹	7.98 nM	7.98 nM	2.42 nM	–	–	–	–	–	ABTx202 (antibody, human IgG1, V domains shown) VH: EVQLVESGGGLVQPGRSLRLSCAASGFTFDDYAMHWVRQAPGKGLEWVSGISWNSGTIGYADSVKGRFTSSRDNAKNSLYLEMNSLRAEDTALYYCAKDSPPGYCSSASCYGAFDIWGQGTMVTVSS VL: EIVMTQSPGTLSLSPGERATLSCRASQSVSSSYLAWYQQKPGQAPRLLIYGSSTRATGIPARFSGSGSGTEFALTISSLQSEDFAVYYCQQYNFWPYTFGQGTKVEIK	–
1470 nM	0.0509 s⁻¹	37200 M⁻¹ s⁻¹	–	–	1470 nM	–	–	–	–	–	ABTx025 (antibody, human IgG1, kappa, V domains shown) VH: EVQLVESGGGLVQPGRSLRLSCAASGFTFDDYAMHWVRQAPGKGLEWVSGISWNSGTIGYADSVKGRFTNSRDNAKNSLYLEMNSLRAEDTALYYCAKDSPPGYCSSASCYGAFDIWGQGTMVTVSS VL: not shown	Kd [7]: 1.25 nM; Kd (Cyno CD117): 5.31 nM; binding result [8]: no binding
2.07 nM	0.000117 s⁻¹	56600 M⁻¹ s⁻¹	7.48 nM	7.48 nM	2.07 nM	–	–	–	–	–	ABTx205 (antibody, human IgG1, V domains shown) VH: EVQLVESGGGLVQPGRSLRLSCAASGFTFDDYAMHWVRQAPGKGLEWVSGISWNSGTIGYADSVKGRFTNSRDNAKNSLYLEMNSLRAEDTALYYCAKDSPPGYCSSASCYGAFDIWGQGTMVTVSS VL: DIVMTQSPSFLSASVGDRVTITCRASQGISSYLAWYQQKPGKAPKLLIYAASTLQNGVPSRFSGSGSGTDFTLTITSLQPEDFATYYCQQSYSTPYTFGQGTKLEIK	–
1.26 nM	5.07e-05 s⁻¹	40300 M⁻¹ s⁻¹	14.2 nM	14.2 nM	1.26 nM	–	–	–	–	–	ABTx206 (antibody, human IgG1, V domains shown) VH: EVQLVESGGGLVQPGRSLRLSCAASGFTFDDYAMHWVRQAPGKGLEWVSGISWNSGTIGYADSVKGRFTNSRDNAKNSLYLEMNSLRAEDTALYYCAKDSPPGYCSSASCYGAFDIRGQGTMVTVSS VL: DIVMTQSPSFLSASVGDRVTITCRASQGISSYLAWYQQKPGKAPKLLIYAASTLQNGVPSRFSGSGSGTDFTLTITSLQPEDFATYYCQQSYSTPYTFGQGTKLEIK	–
6.62 nM	0.000643 s⁻¹	97100 M⁻¹ s⁻¹	5.56 nM	5.56 nM	6.62 nM	–	–	–	–	–	ABTx203 (antibody, human IgG1, V domains shown) VH: EVQLVESGGGLVQPGRSLRLSCAASGFTFDDYAMHWVRQAPGKGLEWVSGISWNSGTIGYADSVKGRFTNSRDNAKNSLYLEMNSLRAEDTALYYCAKDWPSGFCSSAYCYGAFDIWGQGTMVTVSS VL: DIVMTQSPSFLSASVGDRVTITCRASQGISSYLAWYQQKPGKAPKLLIYAASTLQNGVPSRFSGSGSGTDFTLTITSLQPEDFATYYCQQSYSTPYTFGQGTKLEIK	–
–	–	–	–	–	–	–	–	–	–	–	ABTx030 (antibody, V domains shown) VH: QVQLQESGGGLVKPGGSLRLSCAASGFTFSSYSMNWVRQAPGKGLEWVSSIGTISSYIYYADSVKGRFTISRDNAKNSLYLQMNSLRAEDTAVYYCARDYYGGLFDYWGQGTLVTVSS VL: not shown	Kd [7]: 0.449 nM; Kd (Cyno CD117): 0.83 nM
–	–	–	–	–	–	0.986 nM	0.000713 s⁻¹	723000 M⁻¹ s⁻¹	no binding	no binding	ABTx052 variant VH_R59K (antibody, human IgG1, V domains shown) VH: QVQLVQSGAAVKKPGESLKISCKGSGYRFTSYWIGWVRQMPGKGLEWMGIIYPGDSDTKYSPSFQGQVTISAGKSISTAYLQWSSLKASDTAMYYCARHGRGYNGYEGAFDIWGQGTMVTVSS VL: AIQLTQSPSSLSASVGDRVTITCRASQGISSALAWYQQKPGKAPKLLIYDASSLESGVPSRFSGSGSGTDFTLTISSLQPEDFATYYCQQFNSYPLTFGGGTKVEIKR	–
–	–	–	–	–	–	0.683 nM	0.000434 s⁻¹	635000 M⁻¹ s⁻¹	no binding	no binding	ABTx052 variant VL_N92R (antibody, human IgG1, V domains shown) VH: QVQLVQSGAAVKKPGESLKISCKGSGYRFTSYWIGWVRQMPGKGLEWMGIIYPGDSDTRYSPSFQGQVTISAGKSISTAYLQWSSLKASDTAMYYCARHGRGYNGYEGAFDIWGQGTMVTVSS VL: AIQLTQSPSSLSASVGDRVTITCRASQGISSALAWYQQKPGKAPKLLIYDASSLESGVPSRFSGSGSGTDFTLTISSLQPEDFATYYCQQFRSYPLTFGGGTKVEIK	–
–	–	–	–	–	–	3.38 nM	0.00218 s⁻¹	643000 M⁻¹ s⁻¹	no binding	no binding	ABTx052 variant VL_Y94S (antibody, human IgG1, V domains shown) VH: QVQLVQSGAAVKKPGESLKISCKGSGYRFTSYWIGWVRQMPGKGLEWMGIIYPGDSDTRYSPSFQGQVTISAGKSISTAYLQWSSLKASDTAMYYCARHGRGYNGYEGAFDIWGQGTMVTVSS VL: AIQLTQSPSSLSASVGDRVTITCRASQGISSALAWYQQKPGKAPKLLIYDASSLESGVPSRFSGSGSGTDFTLTISSLQPEDFATYYCQQFNSSPLTFGGGTKVEIK	–
–	–	–	–	–	–	0.841 nM	0.000635 s⁻¹	755000 M⁻¹ s⁻¹	no binding	no binding	ABTx052 variant VL_N92Y (antibody, human IgG1, V domains shown) VH: QVQLVQSGAAVKKPGESLKISCKGSGYRFTSYWIGWVRQMPGKGLEWMGIIYPGDSDTRYSPSFQGQVTISAGKSISTAYLQWSSLKASDTAMYYCARHGRGYNGYEGAFDIWGQGTMVTVSS VL: AIQLTQSPSSLSASVGDRVTITCRASQGISSALAWYQQKPGKAPKLLIYDASSLESGVPSRFSGSGSGTDFTLTISSLQPEDFATYYCQQFYSYPLTFGGGTKVEIK	–
–	–	–	–	–	–	3.16 nM	0.00178 s⁻¹	563000 M⁻¹ s⁻¹	no binding	no binding	ABTx052 variant VL_Y94H (antibody, human IgG1, V domains shown) VH: QVQLVQSGAAVKKPGESLKISCKGSGYRFTSYWIGWVRQMPGKGLEWMGIIYPGDSDTRYSPSFQGQVTISAGKSISTAYLQWSSLKASDTAMYYCARHGRGYNGYEGAFDIWGQGTMVTVSS VL: AIQLTQSPSSLSASVGDRVTITCRASQGISSALAWYQQKPGKAPKLLIYDASSLESGVPSRFSGSGSGTDFTLTISSLQPEDFATYYCQQFNSHPLTFGGGTKVEIK	–
